From IntAct's records for PubMed 31515488
Blank lines part the entries; values can stand above or below the substance they belong to.

How the values were obtained:
tcl1a_human TCL1A = tcl1a_human TCL1A (UniProt P56279)
inca1_human INCA1 = inca1_human INCA1 (UniProt Q0VD86)
itf2_human TCF4 = itf2_human TCF4 (UniProt P15884)
cep76_human CEP76 = cep76_human CEP76 (UniProt Q8TAP6)
hbaz_human HBZ = hbaz_human HBZ (UniProt P02008)
nmna1_human NMNAT1 = nmna1_human NMNAT1 (UniProt Q9HAN9)
neca2_human NECAB2 = molecular target: T1, neca2_human NECAB2 (UniProt Q7Z6G3)
T1 sequence: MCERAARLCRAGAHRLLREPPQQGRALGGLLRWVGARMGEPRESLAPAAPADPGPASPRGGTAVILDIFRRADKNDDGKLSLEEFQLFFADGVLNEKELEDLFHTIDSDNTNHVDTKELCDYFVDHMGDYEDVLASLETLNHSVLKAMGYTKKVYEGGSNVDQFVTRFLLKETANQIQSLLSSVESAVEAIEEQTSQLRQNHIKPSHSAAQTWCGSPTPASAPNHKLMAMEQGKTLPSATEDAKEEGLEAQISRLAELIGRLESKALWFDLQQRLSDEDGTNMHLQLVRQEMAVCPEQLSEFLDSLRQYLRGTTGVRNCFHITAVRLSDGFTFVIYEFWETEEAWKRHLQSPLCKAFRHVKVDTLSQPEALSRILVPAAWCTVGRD

mlh1_human MLH1 = mlh1_human MLH1 (UniProt P40692)
srtd3_human SERTAD3 = molecular target: T2, srtd3_human SERTAD3 (UniProt Q9UJW9)
T2 sequence: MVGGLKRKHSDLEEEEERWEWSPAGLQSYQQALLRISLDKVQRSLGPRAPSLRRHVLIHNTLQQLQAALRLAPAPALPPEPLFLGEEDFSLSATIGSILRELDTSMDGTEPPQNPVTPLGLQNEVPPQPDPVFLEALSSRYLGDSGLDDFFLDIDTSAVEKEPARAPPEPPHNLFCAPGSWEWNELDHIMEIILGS

magd1_human MAGED1 = molecular target: T3, magd1_human MAGED1 (UniProt Q9Y5V3)
T3 sequence: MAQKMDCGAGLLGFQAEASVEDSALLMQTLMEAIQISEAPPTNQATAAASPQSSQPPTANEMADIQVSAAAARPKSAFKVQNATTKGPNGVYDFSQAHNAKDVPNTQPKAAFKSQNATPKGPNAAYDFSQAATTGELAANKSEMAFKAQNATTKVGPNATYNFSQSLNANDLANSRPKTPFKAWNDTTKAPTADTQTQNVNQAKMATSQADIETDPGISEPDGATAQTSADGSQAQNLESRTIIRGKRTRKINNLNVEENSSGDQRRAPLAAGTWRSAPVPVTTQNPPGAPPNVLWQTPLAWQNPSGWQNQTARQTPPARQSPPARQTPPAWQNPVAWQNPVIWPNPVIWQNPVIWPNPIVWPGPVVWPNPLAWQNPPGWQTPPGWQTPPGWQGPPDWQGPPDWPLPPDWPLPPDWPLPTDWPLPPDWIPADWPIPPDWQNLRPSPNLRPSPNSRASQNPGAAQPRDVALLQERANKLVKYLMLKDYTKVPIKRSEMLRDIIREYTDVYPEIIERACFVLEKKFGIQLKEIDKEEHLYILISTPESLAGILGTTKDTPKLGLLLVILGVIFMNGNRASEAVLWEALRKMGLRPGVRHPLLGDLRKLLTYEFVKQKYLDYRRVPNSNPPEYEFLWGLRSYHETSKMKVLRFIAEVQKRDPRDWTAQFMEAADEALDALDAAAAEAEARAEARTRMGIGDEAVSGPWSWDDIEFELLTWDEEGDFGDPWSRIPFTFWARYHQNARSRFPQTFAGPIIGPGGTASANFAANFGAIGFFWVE

vps29_human VPS29 = vps29_human VPS29 (UniProt Q9UBQ0)
klhl2_human KLHL2 = klhl2_human KLHL2 (UniProt O95198)
traf1_human TRAF1 = traf1_human TRAF1 (UniProt Q13077)

Substance: "DNA (cytosine-5)-methyltransferase 3A" (Homo sapiens) (from UniProt Q9Y6K1) P904L
effect of a mutation on the interaction (tcl1a_human TCL1A): disrupting interaction strength

Substance: "DNA (cytosine-5)-methyltransferase 3A" (Homo sapiens) (from UniProt Q9Y6K1) V372I
effect of a mutation on the interaction (tcl1a_human TCL1A): with no effect

Substance: Calcium-binding protein 5 (Homo sapiens), Q9NP86 R44Q
effect of a mutation on the interaction (inca1_human INCA1): with no effect
effect of a mutation on the interaction (itf2_human TCF4): with no effect
effect of a mutation on the interaction (cep76_human CEP76): with no effect

Substance: Calcium-binding protein 5 (Homo sapiens), Q9NP86 T65R
effect of a mutation on the interaction (inca1_human INCA1): with no effect
effect of a mutation on the interaction (itf2_human TCF4): disrupting interaction strength
effect of a mutation on the interaction (cep76_human CEP76): with no effect

Substance: Calcium-binding protein 5 (Homo sapiens), Q9NP86 V128A
effect of a mutation on the interaction (inca1_human INCA1): with no effect
effect of a mutation on the interaction (itf2_human TCF4): with no effect
effect of a mutation on the interaction (cep76_human CEP76): with no effect

Substance: Hemoglobin subunit beta (Homo sapiens), P68871 D100Y
effect of a mutation on the interaction (hbaz_human HBZ): disrupting interaction strength

Substance: Hemoglobin subunit beta (Homo sapiens), P68871 E7V
effect of a mutation on the interaction (hbaz_human HBZ): disrupting interaction strength

Substance: Hemoglobin subunit beta (Homo sapiens), P68871 E102Q
effect of a mutation on the interaction (hbaz_human HBZ): disrupting interaction strength

Substance: Hemoglobin subunit beta (Homo sapiens), P68871 E122V
effect of a mutation on the interaction (hbaz_human HBZ): disrupting interaction strength

Substance: Hemoglobin subunit beta (Homo sapiens), P68871 F104L
effect of a mutation on the interaction (hbaz_human HBZ): disrupting interaction strength

Substance: Hemoglobin subunit beta (Homo sapiens), P68871 G57D
effect of a mutation on the interaction (hbaz_human HBZ): with no effect

Substance: Hemoglobin subunit beta (Homo sapiens), P68871 H118Y
effect of a mutation on the interaction (hbaz_human HBZ): disrupting interaction strength

Substance: Hemoglobin subunit beta (Homo sapiens), P68871 L115P
effect of a mutation on the interaction (hbaz_human HBZ): disrupting interaction strength

Substance: Hemoglobin subunit beta (Homo sapiens), P68871 V127G
effect of a mutation on the interaction (hbaz_human HBZ): disrupting interaction strength

Substance: Importin subunit alpha-1 (Homo sapiens) (from UniProt P52292) N86S
effect of a mutation on the interaction (nmna1_human NMNAT1): with no effect
effect of a mutation on the interaction (neca2_human NECAB2): with no effect
effect of a mutation on the interaction (mlh1_human MLH1): with no effect
effect of a mutation on the interaction (srtd3_human SERTAD3): with no effect
effect of a mutation on the interaction (magd1_human MAGED1): with no effect

Substance: Importin subunit alpha-1 (Homo sapiens) (from UniProt P52292) R117W
effect of a mutation on the interaction (nmna1_human NMNAT1): with no effect
effect of a mutation on the interaction (neca2_human NECAB2): with no effect
effect of a mutation on the interaction (mlh1_human MLH1): with no effect
effect of a mutation on the interaction (srtd3_human SERTAD3): with no effect
effect of a mutation on the interaction (magd1_human MAGED1): with no effect

Substance: Vacuolar protein sorting-associated protein 35 (Homo sapiens) (from UniProt Q96QK1) D620N
effect of a mutation on the interaction (vps29_human VPS29): with no effect

Substance: Vacuolar protein sorting-associated protein 35 (Homo sapiens) (from UniProt Q96QK1) L227F
effect of a mutation on the interaction (vps29_human VPS29): with no effect

Substance: Vacuolar protein sorting-associated protein 35 (Homo sapiens) (from UniProt Q96QK1) R524W
effect of a mutation on the interaction (vps29_human VPS29): with no effect

Substance: Zinc finger protein 114 (Homo sapiens), Q8NC26 A229P
effect of a mutation on the interaction (klhl2_human KLHL2): with no effect

Substance: Zinc finger protein 114 (Homo sapiens), Q8NC26 D61V
effect of a mutation on the interaction (klhl2_human KLHL2): with no effect

Substance: Zinc finger protein 502 (Homo sapiens), Q8TBZ5 E243A
effect of a mutation on the interaction (traf1_human TRAF1): with no effect

Results, then the substance that gave them:

effect of a mutation on the interaction (tcl1a_human TCL1A): with no effect
Substance: "DNA (cytosine-5)-methyltransferase 3A" (Homo sapiens) (from UniProt Q9Y6K1) E30A

effect of a mutation on the interaction (tcl1a_human TCL1A): with no effect
Substance: "DNA (cytosine-5)-methyltransferase 3A" (Homo sapiens) (from UniProt Q9Y6K1) N501S

effect of a mutation on the interaction (inca1_human INCA1): with no effect
effect of a mutation on the interaction (itf2_human TCF4): with no effect
effect of a mutation on the interaction (cep76_human CEP76): with no effect
Substance: Calcium-binding protein 5 (Homo sapiens), Q9NP86 G73S

effect of a mutation on the interaction (hbaz_human HBZ): disrupting interaction strength
Substance: Hemoglobin subunit beta (Homo sapiens), P68871 E7K

effect of a mutation on the interaction (hbaz_human HBZ): disrupting interaction strength
Substance: Hemoglobin subunit beta (Homo sapiens), P68871 F123S

effect of a mutation on the interaction (hbaz_human HBZ): with no effect
Substance: Hemoglobin subunit beta (Homo sapiens), P68871 N103Y

effect of a mutation on the interaction (hbaz_human HBZ): disrupting interaction strength
Substance: Hemoglobin subunit beta (Homo sapiens), P68871 P101A

effect of a mutation on the interaction (hbaz_human HBZ): disrupting interaction strength
Substance: Hemoglobin subunit beta (Homo sapiens), P68871 S10C

effect of a mutation on the interaction (hbaz_human HBZ): disrupting interaction strength
Substance: Hemoglobin subunit beta (Homo sapiens), P68871 T88P

effect of a mutation on the interaction (hbaz_human HBZ): disrupting interaction strength
Substance: Hemoglobin subunit beta (Homo sapiens), P68871 V114E

effect of a mutation on the interaction (nmna1_human NMNAT1): with no effect
effect of a mutation on the interaction (neca2_human NECAB2): with no effect
effect of a mutation on the interaction (mlh1_human MLH1): with no effect
effect of a mutation on the interaction (srtd3_human SERTAD3): with no effect
effect of a mutation on the interaction (magd1_human MAGED1): with no effect
Substance: Importin subunit alpha-1 (Homo sapiens) (from UniProt P52292) P216S

effect of a mutation on the interaction (nmna1_human NMNAT1): with no effect
effect of a mutation on the interaction (neca2_human NECAB2): with no effect
effect of a mutation on the interaction (mlh1_human MLH1): with no effect
effect of a mutation on the interaction (srtd3_human SERTAD3): with no effect
effect of a mutation on the interaction (magd1_human MAGED1): with no effect
Substance: Importin subunit alpha-1 (Homo sapiens) (from UniProt P52292) R117Q

effect of a mutation on the interaction (nmna1_human NMNAT1): with no effect
effect of a mutation on the interaction (neca2_human NECAB2): with no effect
effect of a mutation on the interaction (srtd3_human SERTAD3): with no effect
effect of a mutation on the interaction (magd1_human MAGED1): with no effect
Substance: Importin subunit alpha-1 (Homo sapiens) (from UniProt P52292) V506D

effect of a mutation on the interaction (nmna1_human NMNAT1): with no effect
effect of a mutation on the interaction (neca2_human NECAB2): with no effect
effect of a mutation on the interaction (srtd3_human SERTAD3): with no effect
effect of a mutation on the interaction (magd1_human MAGED1): with no effect
Substance: Importin subunit alpha-1 (Homo sapiens) (from UniProt P52292) V506I

effect of a mutation on the interaction (klhl2_human KLHL2): with no effect
Substance: Zinc finger protein 114 (Homo sapiens), Q8NC26 E19G

effect of a mutation on the interaction (klhl2_human KLHL2): with no effect
Substance: Zinc finger protein 114 (Homo sapiens), Q8NC26 H99N

effect of a mutation on the interaction (klhl2_human KLHL2): with no effect
Substance: Zinc finger protein 114 (Homo sapiens), Q8NC26 K404E

effect of a mutation on the interaction (klhl2_human KLHL2): with no effect
Substance: Zinc finger protein 114 (Homo sapiens), Q8NC26 Q357P

effect of a mutation on the interaction (traf1_human TRAF1): with no effect
Substance: Zinc finger protein 502 (Homo sapiens), Q8TBZ5 Q174R
